How the values were obtained:
PlexinA2-ECD-Fc [1] = target: T1, PlexinA2-ECD-Fc (human, UniProt O75051 35-1237); experiment: ELISA, coated ECD-Fc, antibody 462.963 ng/mL
T1 construct: extracellular domain; Bought reagent
T1 sequence (looked up): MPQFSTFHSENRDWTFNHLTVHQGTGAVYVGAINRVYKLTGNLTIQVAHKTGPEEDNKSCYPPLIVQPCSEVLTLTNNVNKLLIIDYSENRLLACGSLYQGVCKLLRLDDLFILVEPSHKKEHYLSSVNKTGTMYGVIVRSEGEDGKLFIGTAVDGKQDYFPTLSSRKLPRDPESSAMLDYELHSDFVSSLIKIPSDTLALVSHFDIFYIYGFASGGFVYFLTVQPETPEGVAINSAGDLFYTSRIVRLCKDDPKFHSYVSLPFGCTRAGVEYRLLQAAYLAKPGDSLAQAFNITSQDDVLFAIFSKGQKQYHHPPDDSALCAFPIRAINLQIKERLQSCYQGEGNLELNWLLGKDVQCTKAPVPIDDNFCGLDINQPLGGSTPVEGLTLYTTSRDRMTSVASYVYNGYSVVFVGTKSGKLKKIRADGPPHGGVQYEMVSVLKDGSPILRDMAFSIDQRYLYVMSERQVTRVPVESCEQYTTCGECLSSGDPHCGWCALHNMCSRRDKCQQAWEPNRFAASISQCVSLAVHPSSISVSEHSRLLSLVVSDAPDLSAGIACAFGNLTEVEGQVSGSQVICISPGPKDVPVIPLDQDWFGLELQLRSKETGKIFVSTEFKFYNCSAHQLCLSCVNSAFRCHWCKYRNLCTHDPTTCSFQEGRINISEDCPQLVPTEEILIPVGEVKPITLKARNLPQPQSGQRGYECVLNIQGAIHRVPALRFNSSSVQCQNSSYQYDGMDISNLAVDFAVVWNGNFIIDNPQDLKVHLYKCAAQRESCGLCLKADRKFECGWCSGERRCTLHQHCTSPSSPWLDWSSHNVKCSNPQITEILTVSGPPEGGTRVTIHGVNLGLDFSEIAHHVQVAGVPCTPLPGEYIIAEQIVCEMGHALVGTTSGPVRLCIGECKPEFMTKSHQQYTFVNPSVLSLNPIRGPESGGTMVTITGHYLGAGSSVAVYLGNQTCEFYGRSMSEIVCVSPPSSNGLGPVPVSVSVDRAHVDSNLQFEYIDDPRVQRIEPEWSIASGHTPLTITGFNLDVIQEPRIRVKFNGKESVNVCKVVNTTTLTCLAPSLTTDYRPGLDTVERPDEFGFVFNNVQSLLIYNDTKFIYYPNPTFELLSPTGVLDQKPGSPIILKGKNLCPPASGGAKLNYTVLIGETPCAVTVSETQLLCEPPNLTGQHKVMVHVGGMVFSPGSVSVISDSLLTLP
Procedure: (§1) Wells of 96-well EIA/RIA high binding plates (Costar, #2592) are coated with 100 μL of 1 μg/mL human c-Met extracellular domain (ECD)-Fc-Flis fusion (SEQ ID NO:72), RON-ECD-Fc (R&D Systems, #1947-MS), or PlexinA2-ECD-Fc (Abnova, Taipei, Taiwan #H00005362-P01) in coating buffer (BioFX Labs, # COAT-1000-01) overnight at 4° C. […] After the plates are washed, 100 μL/well of substrate solution (BioFx, #TMBW-1000-01) are added and the plates are incubated for 10 min. at room temperature. 100 μL/well of stop solution (BioFx, # LSTP-1000-01) are added to stop the reaction. The colorimetric signals are developed and read at 450 nm using a SpectraMax 190 plate reader (Molecular Devices, Sunnyvale, Calif.). c-Met antibody binding to c-Met, RON and PlexinA2 ECDs is proportional to color signal production.

Human c-Met-Flis-Fc ECD [2] = target: T2, Human c-Met-Flis-Fc ECD (human); experiment: ELISA, coated ECD-Fc, antibody 462.963 ng/mL
T2 construct: also called human c-Met extracellular domain (ECD)-Fc-Flis fusion; Human cMet-ECD-Fc-Flis
T2 sequence (chain, as listed by the source limits assumed): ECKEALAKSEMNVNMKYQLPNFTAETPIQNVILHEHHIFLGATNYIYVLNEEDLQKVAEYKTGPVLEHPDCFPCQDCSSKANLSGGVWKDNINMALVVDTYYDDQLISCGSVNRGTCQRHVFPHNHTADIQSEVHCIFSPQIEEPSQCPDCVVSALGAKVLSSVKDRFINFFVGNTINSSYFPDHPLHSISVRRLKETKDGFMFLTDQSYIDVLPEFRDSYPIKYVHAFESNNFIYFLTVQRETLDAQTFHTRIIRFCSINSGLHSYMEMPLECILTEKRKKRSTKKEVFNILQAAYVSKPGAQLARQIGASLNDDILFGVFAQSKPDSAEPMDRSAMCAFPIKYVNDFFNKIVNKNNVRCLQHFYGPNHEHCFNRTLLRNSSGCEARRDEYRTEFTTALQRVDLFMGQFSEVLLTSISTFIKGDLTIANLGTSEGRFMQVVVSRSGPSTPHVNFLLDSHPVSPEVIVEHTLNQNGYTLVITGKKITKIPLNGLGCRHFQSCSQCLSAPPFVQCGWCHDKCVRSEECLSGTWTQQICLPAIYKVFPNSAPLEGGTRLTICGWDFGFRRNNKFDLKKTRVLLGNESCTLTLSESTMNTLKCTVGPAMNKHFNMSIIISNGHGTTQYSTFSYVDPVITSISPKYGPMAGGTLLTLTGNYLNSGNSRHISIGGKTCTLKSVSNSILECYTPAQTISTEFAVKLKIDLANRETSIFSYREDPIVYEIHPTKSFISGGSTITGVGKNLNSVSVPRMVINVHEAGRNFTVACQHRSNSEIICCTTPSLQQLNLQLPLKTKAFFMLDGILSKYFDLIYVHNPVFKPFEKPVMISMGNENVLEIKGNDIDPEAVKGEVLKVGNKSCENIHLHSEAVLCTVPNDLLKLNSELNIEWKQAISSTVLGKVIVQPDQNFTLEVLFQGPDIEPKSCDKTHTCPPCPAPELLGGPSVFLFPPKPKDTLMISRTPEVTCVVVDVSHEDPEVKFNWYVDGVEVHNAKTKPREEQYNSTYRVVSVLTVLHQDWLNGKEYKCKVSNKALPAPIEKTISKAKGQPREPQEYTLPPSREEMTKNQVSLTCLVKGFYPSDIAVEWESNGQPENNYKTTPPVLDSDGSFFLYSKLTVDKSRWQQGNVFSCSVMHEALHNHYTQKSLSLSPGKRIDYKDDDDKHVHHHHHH
Procedure: as §1

RON-ECD-Fc [3] = target: T3, RON-ECD-Fc (human, UniProt Q04912 25-957); experiment: ELISA, coated ECD-Fc, antibody 462.963 ng/mL
T3 construct: extracellular domain; Bought reagent; not shown: Fc part of the bought fusion
T3 sequence (looked up): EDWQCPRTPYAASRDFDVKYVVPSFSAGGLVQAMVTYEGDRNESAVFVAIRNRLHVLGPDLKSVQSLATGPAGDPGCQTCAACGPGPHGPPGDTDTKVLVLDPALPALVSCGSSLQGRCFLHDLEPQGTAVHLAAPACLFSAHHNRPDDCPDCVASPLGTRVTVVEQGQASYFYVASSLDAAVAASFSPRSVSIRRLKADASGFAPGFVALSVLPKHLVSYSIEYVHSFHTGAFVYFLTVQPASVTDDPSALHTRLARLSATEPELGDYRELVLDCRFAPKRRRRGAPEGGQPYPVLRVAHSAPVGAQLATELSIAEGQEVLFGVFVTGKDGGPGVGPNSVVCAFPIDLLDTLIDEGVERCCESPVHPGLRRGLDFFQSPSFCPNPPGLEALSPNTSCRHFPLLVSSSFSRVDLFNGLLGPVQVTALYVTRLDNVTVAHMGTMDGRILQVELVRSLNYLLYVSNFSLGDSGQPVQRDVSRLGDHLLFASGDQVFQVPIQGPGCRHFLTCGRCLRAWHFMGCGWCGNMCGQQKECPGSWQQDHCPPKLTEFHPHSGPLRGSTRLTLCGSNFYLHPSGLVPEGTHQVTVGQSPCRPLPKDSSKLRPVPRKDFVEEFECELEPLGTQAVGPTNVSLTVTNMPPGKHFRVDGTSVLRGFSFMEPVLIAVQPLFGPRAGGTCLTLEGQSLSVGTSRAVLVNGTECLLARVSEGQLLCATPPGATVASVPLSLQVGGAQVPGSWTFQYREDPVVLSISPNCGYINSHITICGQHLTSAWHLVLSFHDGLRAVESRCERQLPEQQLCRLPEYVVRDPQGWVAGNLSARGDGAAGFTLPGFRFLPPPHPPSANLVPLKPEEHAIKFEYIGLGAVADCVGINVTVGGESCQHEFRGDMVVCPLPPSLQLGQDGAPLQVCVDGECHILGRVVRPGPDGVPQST
Procedure: as §1

Human c-Met-Flis-Fc ECD [4] = target: T2, Human c-Met-Flis-Fc ECD; experiment: ELISA, coated ECD-Fc, antibody 0.010 ng/mL
Procedure: as §1

PlexinA2-ECD-Fc [5] = target: T1, PlexinA2-ECD-Fc; experiment: ELISA, coated ECD-Fc, antibody 2777.778 ng/mL
Procedure: as §1

Human c-Met-Flis-Fc ECD [6] = target: T2, Human c-Met-Flis-Fc ECD; experiment: ELISA, coated ECD-Fc, antibody 2777.778 ng/mL
Procedure: as §1

RON-ECD-Fc [7] = target: T3, RON-ECD-Fc; experiment: ELISA, coated ECD-Fc, antibody 2777.778 ng/mL
Procedure: as §1

B1: C8-6 (antibody, human IgG2, kappa, V domains shown)
VH: QVQLVQSGAEVKKPGASVKVSCKASGYTFTDYYMHWVRQAPGQGLEWMGRVNPNRGGTTYNQKFEGRVTMTTDTSTSTAYMELRSLRSDDTAVYYCARTNWLDYWGQGTTVTVSS
VL: DIQMTQSPSSLSASVGDRVTITCSVSSSVSSIYLHWYQQKPGKAPKLLIYSTSNLASGVPSRFSGSGSGTDFTLTISSLQPEDFATYYCIQYSGYPLTFGGGTKVEIKR
notes: Called IgG4, kappa; also called Mab C8-6
Average A450 nm (PlexinA2-ECD-Fc [1]): 0.086 A450 nm
Average A450 nm (Human c-Met-Flis-Fc ECD [2]): 4 A450 nm
Average A450 nm (RON-ECD-Fc [3]): 0.088 A450 nm
Average A450 nm (Human c-Met-Flis-Fc ECD [4]): 0.335 A450 nm
Average A450 nm (PlexinA2-ECD-Fc [5]): 0.094 A450 nm
Average A450 nm (Human c-Met-Flis-Fc ECD [6]): 4 A450 nm
Average A450 nm (RON-ECD-Fc [7]): 0.088 A450 nm
